Experimental data from IntAct's records for PubMed 26481812.

B1: C-type mannose receptor 2 (Homo sapiens), Q9UBG0 (parent)
chain: MGPGRPAPAPWPRHLLRCVLLLGCLHLGRPGAPGDAALPEPNVFLIFSHGLQGCLEAQGGQVRVTPACNTSLPAQRWKWVSRNRLFNLGTMQCLGTGWPGTNTTASLGMYECDREALNLRWHCRTLGDQLSLLLGARTSNISKPGTLERGDQTRSGQWRIYGSEEDLCALPYHEVYTIQGNSHGKPCTIPFKYDNQWFHGCTSTGREDGHLWCATTQDYGKDERWGFCPIKSNDCETFWDKDQLTDSCYQFNFQSTLSWREAWASCEQQGADLLSITEIHEQTYINGLLTGYSSTLWIGLNDLDTSGGWQWSDNSPLKYLNWESDQPDNPSEENCGVIRTESSGGWQNRDCSIALPYVCKKKPNATAEPTPPDRWANVKVECEPSWQPFQGHCYRLQAEKRSWQESKKACLRGGGDLVSIHSMAELEFITKQIKQEVEELWIGLNDLKLQMNFEWSDGSLVSFTHWHPFEPNNFRDSLEDCVTIWGPEGRWNDSPCNQSLPSICKKAGQLSQGAAEEDHGCRKGWTWHSPSCYWLGEDQVTYSEARRLCTDHGSQLVTITNRFEQAFVSSLIYNWEGEYFWTALQDLNSTGSFFWLSGDEVMYTHWNRDQPGYSRGGCVALATGSAMGLWEVKNCTSFRARYICRQSLGTPVTPELPGPDPTPSLTGSCPQGWASDTKLRYCYKVFSSERLQDKKSWVQAQGACQELGAQLLSLASYEEEHFVANMLNKIFGESEPEIHEQHWFWIGLNRRDPRGGQSWRWSDGVGFSYHNFDRSRHDDDDIRGCAVLDLASLQWVAMQCDTQLDWICKIPRGTDVREPDDSPQGRREWLRFQEAEYKFFEHHSTWAQAQRICTWFQAELTSVHSQAELDFLSHNLQKFSRAQEQHWWIGLHTSESDGRFRWTDGSIINFISWAPGKPRPVGKDKKCVYMTASREDWGDQRCLTALPYICKRSNVTKETQPPDLPTTALGGCPSDWIQFLNKCFQVQGQEPQSRVKWSEAQFSCEQQEAQLVTITNPLEQAFITASLPNVTFDLWIGLHASQRDFQWVEQEPLMYANWAPGEPSGPSPAPSGNKPTSCAVVLHSPSAHFTGRWDDRSCTEETHGFICQKGTDPSLSPSPAALPPAPGTELSYLNGTFRLLQKPLRWHDALLLCESRNASLAYVPDPYTQAFLTQAARGLRTPLWIGLAGEEGSRRYSWVSEEPLNYVGWQDGEPQQPGGCTYVDVDGAWRTTSCDTKLQGAVCGVSSGPPPPRRISYHGSCPQGLADSAWIPFREHCYSFHMELLLGHKEARQRCQRAGGAVLSILDEMENVFVWEHLQSYEGQSRGAWLGMNFNPKGGTLVWQDNTAVNYSNWGPPGLGPSMLSHNSCYWIQSNSGLWRPGACTNITMGVVCKLPRAEQSSFSPSALPENPAALVVVLMAVLLLLALLTAALILYRRRQSIERGAFEGARYSRSSSSPTEATEKNILVSDMEMNEQQE

Variants of: B1
Details: with co1a1_rat Col1a1, P02454
Sequence of co1a1_rat Col1a1, P02454 (P02454 whole entry): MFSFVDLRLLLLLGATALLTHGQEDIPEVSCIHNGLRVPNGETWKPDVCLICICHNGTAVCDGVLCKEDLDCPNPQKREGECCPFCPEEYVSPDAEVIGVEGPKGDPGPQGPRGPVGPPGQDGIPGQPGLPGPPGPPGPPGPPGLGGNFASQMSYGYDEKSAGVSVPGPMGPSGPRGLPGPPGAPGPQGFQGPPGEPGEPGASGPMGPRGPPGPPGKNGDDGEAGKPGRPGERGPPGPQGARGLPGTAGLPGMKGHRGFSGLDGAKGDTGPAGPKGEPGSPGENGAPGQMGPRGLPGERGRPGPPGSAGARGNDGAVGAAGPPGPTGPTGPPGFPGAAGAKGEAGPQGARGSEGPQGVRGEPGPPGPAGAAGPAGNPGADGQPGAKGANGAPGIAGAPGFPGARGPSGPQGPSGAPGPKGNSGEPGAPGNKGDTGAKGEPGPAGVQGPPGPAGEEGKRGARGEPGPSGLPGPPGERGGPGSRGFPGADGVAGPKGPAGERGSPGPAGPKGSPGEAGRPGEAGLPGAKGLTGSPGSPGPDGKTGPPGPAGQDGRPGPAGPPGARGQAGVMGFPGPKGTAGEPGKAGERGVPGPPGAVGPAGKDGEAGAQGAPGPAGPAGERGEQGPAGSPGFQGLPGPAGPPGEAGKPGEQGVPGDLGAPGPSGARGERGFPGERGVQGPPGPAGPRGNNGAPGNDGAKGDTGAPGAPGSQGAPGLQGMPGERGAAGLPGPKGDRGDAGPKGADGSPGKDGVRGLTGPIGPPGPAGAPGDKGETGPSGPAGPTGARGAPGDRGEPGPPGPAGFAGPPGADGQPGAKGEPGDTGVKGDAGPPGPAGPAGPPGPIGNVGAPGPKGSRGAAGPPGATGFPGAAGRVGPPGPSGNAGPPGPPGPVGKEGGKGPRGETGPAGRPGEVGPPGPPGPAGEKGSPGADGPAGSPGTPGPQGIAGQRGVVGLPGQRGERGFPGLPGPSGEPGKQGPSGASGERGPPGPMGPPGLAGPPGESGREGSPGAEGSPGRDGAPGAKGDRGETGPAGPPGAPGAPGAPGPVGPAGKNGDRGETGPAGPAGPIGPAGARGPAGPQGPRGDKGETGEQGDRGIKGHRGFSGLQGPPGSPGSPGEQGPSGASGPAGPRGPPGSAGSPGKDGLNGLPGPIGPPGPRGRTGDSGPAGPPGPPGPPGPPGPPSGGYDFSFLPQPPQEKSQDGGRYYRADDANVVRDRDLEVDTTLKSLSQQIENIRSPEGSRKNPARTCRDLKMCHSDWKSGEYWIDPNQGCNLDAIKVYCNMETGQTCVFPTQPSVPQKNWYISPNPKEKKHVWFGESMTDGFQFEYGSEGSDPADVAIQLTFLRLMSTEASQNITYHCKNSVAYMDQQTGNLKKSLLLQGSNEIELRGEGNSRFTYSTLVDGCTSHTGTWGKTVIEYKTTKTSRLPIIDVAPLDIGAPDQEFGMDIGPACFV

effect of a mutation on the interaction	Variant
disrupting interaction strength	Q179N;N181T
decreasing interaction strength	Y292N;S294T
disrupting interaction strength	Y193A
disrupting interaction strength	Y219A
disrupting interaction strength	R206A;D208A
